Measured values as given in paper PMC12044695.

What was measured:
Assay in all cases: ELISA; enzyme-linked lectin assay (ELLA): extracted glycoproteins immobilised at 4 μg/mL on high-binding 96-well plates, blocked with 0.5% PVA, probed 2 h at room temperature with WGAHRP or AuNP–WGAHRP (1 μg/mL WGAHRP) in PBS with 1 mM CaCl2 and 1 mM MgCl2, ABTS read at 405 nm; then the same plate probed with WGA antibodies and AlexaFluor 633 secondary antibodies (FLISA)
[1] = target: WGA-binding glycoproteins purified from C2C12 cells in differentiation conditions
[2] = target: WGA-binding glycoproteins purified from C2C12 cells in growth condition
[3] = target: WGA-binding glycoproteins purified from NE-4C cells in growth condition
[4] = target: WGA-binding glycoproteins purified from NSC-34 cells in differentiation conditions
[5] = target: WGA-binding glycoproteins purified from NSC-34 cells in growth condition

Measured: fluorescence intensity (FLISA) against WGAHRP (% lower than WGAHRP)

gold nanoparticle-conjugated WGAHRP (AuNP-MSA-WGAHRP conjugate) (from UniProt P00433 31-338)
50: all assays above
